Target: T1, rabbit cytochrome P450 2B4 (rabbit, UniProt P00178 1-491)
T1 sequence (looked up): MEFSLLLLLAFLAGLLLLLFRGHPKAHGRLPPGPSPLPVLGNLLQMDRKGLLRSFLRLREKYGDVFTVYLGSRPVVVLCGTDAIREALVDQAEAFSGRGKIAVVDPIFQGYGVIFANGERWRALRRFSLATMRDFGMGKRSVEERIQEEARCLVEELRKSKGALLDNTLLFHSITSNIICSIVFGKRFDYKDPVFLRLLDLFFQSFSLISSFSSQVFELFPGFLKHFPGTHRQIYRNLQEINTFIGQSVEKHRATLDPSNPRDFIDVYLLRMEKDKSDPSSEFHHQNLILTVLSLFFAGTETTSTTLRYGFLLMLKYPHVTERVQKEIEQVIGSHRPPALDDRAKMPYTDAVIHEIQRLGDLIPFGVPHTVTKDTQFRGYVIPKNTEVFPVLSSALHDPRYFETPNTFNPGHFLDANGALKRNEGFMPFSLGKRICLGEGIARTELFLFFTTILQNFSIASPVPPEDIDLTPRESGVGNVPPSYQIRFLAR
Test: type I spectral change

B1: rabbit cytochrome b5 (natural protein, UniProt P00169 1-134, looked up)
chain: MAAQSDKDVKYYTLEEIKKHNHSKSTWLILHHKVYDLTKFLEEHPGGEEVLREQAGGDATENFEDVGHSTDARELSKTFIIGELHPDDRSKLSKPMETLITTVDSNSSWWTNWVIPAISALIVALMYRLYMADD
modifications: uniformly 15N-labeled (in the NMR experiments)
B1: binds.
